# Patent publication US20150344570A1 (published 2015)
# B1: GpH7-A5/GpH7-B3 variant T335_10E/GpL16-k0 (antibody, human IgG1, kappa)
# heavy 1: not shown
# heavy 2: not shown
# light: DIVMTQSPLSLPVTPGEPASISCQASESLVHSNRNTYLHWYLQKPGQSPQLLIYKVSNRFSGVPDRFSGSGSGTDFTLKISRVEAEDVGVYYCSQNTHVPPTFGQGTKVEIERTVAAPSVFIFPPSDEQLKSGTASVVCLLNNFYPREAKVQWKVDNALQSGNSQESVTEQDSKDSTYSLSSTLTLSKADYEKHKVYACEVTHQGLSSPVTKSFNRGEC
# notes: heterodimerized IgG1, mutation in one H chain only; also called He Ab
# B2: GpH7-A5/GpH7-B3 variant T335_11K/GpL16-k0 (antibody, human IgG1, kappa)
# heavy 1: not shown
# heavy 2: not shown
# light: DIVMTQSPLSLPVTPGEPASISCQASESLVHSNRNTYLHWYLQKPGQSPQLLIYKVSNRFSGVPDRFSGSGSGTDFTLKISRVEAEDVGVYYCSQNTHVPPTFGQGTKVEIERTVAAPSVFIFPPSDEQLKSGTASVVCLLNNFYPREAKVQWKVDNALQSGNSQESVTEQDSKDSTYSLSSTLTLSKADYEKHKVYACEVTHQGLSSPVTKSFNRGEC
# notes: as for B1
# B3: GpH7-A5/GpH7-B3 variant T335_12R/GpL16-k0 (antibody, human IgG1, kappa)
# heavy 1: not shown
# heavy 2: not shown
# light: DIVMTQSPLSLPVTPGEPASISCQASESLVHSNRNTYLHWYLQKPGQSPQLLIYKVSNRFSGVPDRFSGSGSGTDFTLKISRVEAEDVGVYYCSQNTHVPPTFGQGTKVEIERTVAAPSVFIFPPSDEQLKSGTASVVCLLNNFYPREAKVQWKVDNALQSGNSQESVTEQDSKDSTYSLSSTLTLSKADYEKHKVYACEVTHQGLSSPVTKSFNRGEC
# notes: as for B1
# B4: GpH7-A5/GpH7-B3 variant T335_15Y/GpL16-k0 (antibody, human IgG1, kappa)
# heavy 1: not shown
# heavy 2: not shown
# light: DIVMTQSPLSLPVTPGEPASISCQASESLVHSNRNTYLHWYLQKPGQSPQLLIYKVSNRFSGVPDRFSGSGSGTDFTLKISRVEAEDVGVYYCSQNTHVPPTFGQGTKVEIERTVAAPSVFIFPPSDEQLKSGTASVVCLLNNFYPREAKVQWKVDNALQSGNSQESVTEQDSKDSTYSLSSTLTLSKADYEKHKVYACEVTHQGLSSPVTKSFNRGEC
# notes: as for B1
# B5: GpH7-A5/GpH7-B3 variant T335_16H/GpL16-k0 (antibody, human IgG1, kappa)
# heavy 1: not shown
# heavy 2: not shown
# light: DIVMTQSPLSLPVTPGEPASISCQASESLVHSNRNTYLHWYLQKPGQSPQLLIYKVSNRFSGVPDRFSGSGSGTDFTLKISRVEAEDVGVYYCSQNTHVPPTFGQGTKVEIERTVAAPSVFIFPPSDEQLKSGTASVVCLLNNFYPREAKVQWKVDNALQSGNSQESVTEQDSKDSTYSLSSTLTLSKADYEKHKVYACEVTHQGLSSPVTKSFNRGEC
# notes: as for B1
# B6: GpH7-A5/GpH7-B3 variant T335_18N/GpL16-k0 (antibody, human IgG1, kappa)
# heavy 1: not shown
# heavy 2: not shown
# light: DIVMTQSPLSLPVTPGEPASISCQASESLVHSNRNTYLHWYLQKPGQSPQLLIYKVSNRFSGVPDRFSGSGSGTDFTLKISRVEAEDVGVYYCSQNTHVPPTFGQGTKVEIERTVAAPSVFIFPPSDEQLKSGTASVVCLLNNFYPREAKVQWKVDNALQSGNSQESVTEQDSKDSTYSLSSTLTLSKADYEKHKVYACEVTHQGLSSPVTKSFNRGEC
# notes: as for B1
# B7: GpH7-A5/GpH7-B3 variant T335_19Q/GpL16-k0 (antibody, human IgG1, kappa)
# heavy 1: not shown
# heavy 2: not shown
# light: DIVMTQSPLSLPVTPGEPASISCQASESLVHSNRNTYLHWYLQKPGQSPQLLIYKVSNRFSGVPDRFSGSGSGTDFTLKISRVEAEDVGVYYCSQNTHVPPTFGQGTKVEIERTVAAPSVFIFPPSDEQLKSGTASVVCLLNNFYPREAKVQWKVDNALQSGNSQESVTEQDSKDSTYSLSSTLTLSKADYEKHKVYACEVTHQGLSSPVTKSFNRGEC
# notes: as for B1
# B8: GpH7-A5/GpH7-B3 variant T335_20W/GpL16-k0 (antibody, human IgG1, kappa)
# heavy 1: not shown
# heavy 2: not shown
# light: DIVMTQSPLSLPVTPGEPASISCQASESLVHSNRNTYLHWYLQKPGQSPQLLIYKVSNRFSGVPDRFSGSGSGTDFTLKISRVEAEDVGVYYCSQNTHVPPTFGQGTKVEIERTVAAPSVFIFPPSDEQLKSGTASVVCLLNNFYPREAKVQWKVDNALQSGNSQESVTEQDSKDSTYSLSSTLTLSKADYEKHKVYACEVTHQGLSSPVTKSFNRGEC
# notes: as for B1
# B9: GpH7-A5/GpH7-B3 variant Y296_06M/GpL16-k0 (antibody, human IgG1, kappa)
# heavy 1: not shown
# heavy 2: not shown
# light: DIVMTQSPLSLPVTPGEPASISCQASESLVHSNRNTYLHWYLQKPGQSPQLLIYKVSNRFSGVPDRFSGSGSGTDFTLKISRVEAEDVGVYYCSQNTHVPPTFGQGTKVEIERTVAAPSVFIFPPSDEQLKSGTASVVCLLNNFYPREAKVQWKVDNALQSGNSQESVTEQDSKDSTYSLSSTLTLSKADYEKHKVYACEVTHQGLSSPVTKSFNRGEC
# notes: as for B1
# B10: GpH7-A5/GpH7-B3 variant Y296_11K/GpL16-k0 (antibody, human IgG1, kappa)
# heavy 1: not shown
# heavy 2: not shown
# light: DIVMTQSPLSLPVTPGEPASISCQASESLVHSNRNTYLHWYLQKPGQSPQLLIYKVSNRFSGVPDRFSGSGSGTDFTLKISRVEAEDVGVYYCSQNTHVPPTFGQGTKVEIERTVAAPSVFIFPPSDEQLKSGTASVVCLLNNFYPREAKVQWKVDNALQSGNSQESVTEQDSKDSTYSLSSTLTLSKADYEKHKVYACEVTHQGLSSPVTKSFNRGEC
# notes: as for B1
# B11: GpH7-A5/GpH7-B3 variant Y296_12R/GpL16-k0 (antibody, human IgG1, kappa)
# heavy 1: not shown
# heavy 2: not shown
# light: DIVMTQSPLSLPVTPGEPASISCQASESLVHSNRNTYLHWYLQKPGQSPQLLIYKVSNRFSGVPDRFSGSGSGTDFTLKISRVEAEDVGVYYCSQNTHVPPTFGQGTKVEIERTVAAPSVFIFPPSDEQLKSGTASVVCLLNNFYPREAKVQWKVDNALQSGNSQESVTEQDSKDSTYSLSSTLTLSKADYEKHKVYACEVTHQGLSSPVTKSFNRGEC
# notes: as for B1
# Molecular target: T1, FcγRIa (human, UniProt P12314 16-292)
# T1 construct: extracellular domain; soluble His-tagged extracellular domain expressed in FreeStyle293 cells, used as analyte in Biacore; also called FcgRI; CD64
# T1 sequence (P12314 16-292): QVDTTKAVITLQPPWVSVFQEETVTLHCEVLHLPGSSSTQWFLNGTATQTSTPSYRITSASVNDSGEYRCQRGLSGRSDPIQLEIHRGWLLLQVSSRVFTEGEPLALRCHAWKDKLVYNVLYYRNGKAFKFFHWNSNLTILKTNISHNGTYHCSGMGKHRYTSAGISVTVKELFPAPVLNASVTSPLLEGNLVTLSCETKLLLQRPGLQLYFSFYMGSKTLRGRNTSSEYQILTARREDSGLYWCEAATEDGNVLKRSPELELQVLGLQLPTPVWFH
# Test: SPR (Biacore), captured antibody, FcγRIa analyte; relative to GpH7-A5/GpH7-B3/GpL16-k0
row,Binder,He/Con_1a
1,B1,"109 relative, control = 100"
2,B2,"111 relative, control = 100"
3,B3,"113 relative, control = 100"
4,B4,"107 relative, control = 100"
5,B5,"106 relative, control = 100"
6,B6,"106 relative, control = 100"
7,B7,"105 relative, control = 100"
8,B8,"106 relative, control = 100"
9,B9,"104 relative, control = 100"
10,B10,"105 relative, control = 100"
11,B11,"106 relative, control = 100"
